Reference: patent US9012420B2, “Aptamer for chymase, and use thereof” (Ribomic Inc., priority 2009, dated 2015)

B1: 46 (nucleic acid)
chain: GGGAGCAGGAGAGAGGUCAGAUGGGACAGAUAGAGUUAAAGUCCGUUACGUGGCCUAUGCGUGCUAGUGUGA
modifications: aptamer; 2'-fluoro at CU, RNA at AG, backbone not given here
B2: 43 (nucleic acid)
chain: GGGAGCAGGAGAGAGGUCAGAUGAUGCCAAGAUAGAUUUAAAUGGCGUUUGGGCCUAUGCGUGCUAGUGUGA
modifications: aptamer; 2'-fluoro at CU, RNA at AG, backbone not given here
B3: 45 (nucleic acid)
chain: GGGAGCAGGAGAGAGGUCAGAUGGACCACCGAUGGGCAAGAUAGAGUUAAAUGCCUAUGCGUGCUAGUGUGA
modifications: aptamer; 2'-fluoro at CU, RNA at AG, backbone not given here
B4: 44 (nucleic acid)
chain: GGGAGCAGGAGAGAGGUCAGAUGUUAGACCAAAGCAUAGGAGAUAGAGUUAAACCUAUGCGUGCUAGUGUGA
modifications: aptamer; 2'-fluoro at CU, RNA at AG, backbone not given here
B5: 39 (nucleic acid)
chain: GGGAGCAGGAGAGAGGUCAGAUGGUUACGGAUAGAGUUAAGGUAACGGUACGGCCUAUGCGUGCUAGUGUGA
modifications: aptamer; 2'-fluoro at CU, RNA at AG, backbone not given here
B6: 42 (nucleic acid)
chain: GGGAGCAGGAGAGAGGUCAGAUGCGUGAUCGUGCAAGGCGGAUAGAGUUAAGGCCUAUGCGUGCUAGUGUGA
modifications: aptamer; 2'-fluoro at CU, RNA at AG, backbone not given here

Tests used:
[1] = target: T1, native chymase (purified from human skin mast cell) (Homo sapiens, UniProt P23946); assay: Chymase inhibitory activity using angiotensin I as substrate, native chymase; format: biochemical; details: final 50 μM, chymase 0.2-0.5 nM, 37° C. 90 min, one measurement
T1 construct: the native is chymase purified from human skin mast cell; purchased Calbiochem; host or cells: human skin mast cell
T1 sequence (P23946 22-247): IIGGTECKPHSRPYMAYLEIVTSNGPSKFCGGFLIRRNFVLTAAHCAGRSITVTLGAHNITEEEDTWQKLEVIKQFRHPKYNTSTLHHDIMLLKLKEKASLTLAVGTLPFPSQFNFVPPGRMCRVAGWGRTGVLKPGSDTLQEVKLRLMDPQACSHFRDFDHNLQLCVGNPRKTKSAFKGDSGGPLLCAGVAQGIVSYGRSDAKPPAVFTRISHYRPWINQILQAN
Description: (§1) A second method of evaluation employs a native substrate. A useful native substrate for chymase is angiotensin I. Here, His-Leu, a peptide fragment released upon degradation of angiotensin I, is fluorescently derivatized, and the fluorescence intensity therefrom is quantified.
(§2) In the assay, an enzyme reaction is carried out in 50 μL of solution C. First, 0.3-0.75 ng of chymase (recombinant, manufactured by SIGMA; or native, manufactured by Calbiochem) is diluted in solution C to obtain 5 μL chymase solution. Each nucleic acid is prepared in solution C to obtain 25 μL solutions. 5 μL of each chymase dilution and 25 μL of each nucleic acid solution are mixed, and then the mixture is incubated at 37° C. for 5 minutes. […] The angiotensin I solution is added to the mixture of chymase and nucleic acid, and the enzyme reaction is initiated. After the reaction was allowed to proceed at 37° C. for 90 minutes, 25 μL of ice-cooled 30% trichloroacetic acid solution is added to terminate the reaction. The entire mixture is centrifuged at 4° C., 14000 rpm for 10 minutes, and 30 μL of the resulting supernatant is used for the subsequent reaction for fluorescent derivatization.
(§3) After 30 μL of the supernatant is added to a 96-well plate (Black, manufactured by Costar), 15 μL of 2% o-phthalaldehyde (manufactured by SIGMA) solution in methanol and 170 μL of 0.3M NaOH solution are mixed in each well, and the plate is allowed to stand at room temperature for 10 minutes. Subsequently, 25 μL of 3M HCl solution is added to terminate the reaction. The plate is set to the microplate reader SpectraMax190 (manufactured by Molecular Devices Corporation), and the fluorescence intensity is determined at an excitation wavelength of 355 nm and a fluorescence wavelength of 460 nm.
(§4) For control, samples are treated and analyzed in the same manner in two cases: use of SEQ ID NO: 58 (negative control) and use of chymostatin, a known chymotrypsin-like serine protease inhibitor (positive control). In both cases, fluorescence intensity obtained at 0 minute reaction time serves as a blank determination. Taking the fluorescence intensity detected with the addition of an equal volume of solution C, in place of each nucleic acid, in the chymase enzyme reaction as 100%, the inhibitory rate for each test substance is calculated, and the inhibitor concentration required to cause a 50% inhibition of the enzyme activity (IC50) is determined.
(§5) For further assessment of the inhibitory activity of the nucleic acid of the present invention, the enzyme activity of chymase was measured using angiotensin I, which is a native substrate for chymase, according to the following method. Angiotensin I is converted by chymase to angiotensin II, during which a peptide fragment His-Leu is released. Since the peptide His-Leu is fluorescently derivatized by o-phthalaldehyde, its fluorescence intensity can be quantitatively measured.
(§6) The total volume of solution for an enzyme reaction in the assay was set to 50 μL, and the reaction was performed in solution C buffer. First, 0.3-0.75 ng of chymase (recombinant, (manufactured by SIGMA) or native (manufactured by Calbiochem)) was diluted with solution C to give 5 μL thereof. Here, the recombinant is chymase expressed by yeast, and the native is chymase purified from human skin mast cell. The nucleic acid was serially diluted with solution C at a concentration of 0.0027-2 μM to give 25 μL thereof. The chymase solution (5 μL) and the nucleic acid solution (25 μL) were mixed, and the mixture was incubated at 37° C. for 5 min. On the other hand, […] angiotensin I (manufactured by PEPTIDE INSTITUTE, INC.) was prepared in solution C to give […] thereof, which was incubated at 37° C. for 5 min. The angiotensin I solution was added to a mixture of chymase and nucleic acid to start an enzyme reaction. The final chymase concentration of the reaction solution was 0.2-0.5 nM, and the final substrate concentration was 50 μM. […]

[2] = target: T2, chymase (recombinant, manufactured by SIGMA) (Homo sapiens, UniProt P23946); assay: Chymase inhibitory activity using synthetic substrate Suc-Ala-Ala-Pro-Phe-MCA; format: biochemical
T2 construct: purchased SIGMA; host or cells: yeast
T2 sequence (P23946 22-247): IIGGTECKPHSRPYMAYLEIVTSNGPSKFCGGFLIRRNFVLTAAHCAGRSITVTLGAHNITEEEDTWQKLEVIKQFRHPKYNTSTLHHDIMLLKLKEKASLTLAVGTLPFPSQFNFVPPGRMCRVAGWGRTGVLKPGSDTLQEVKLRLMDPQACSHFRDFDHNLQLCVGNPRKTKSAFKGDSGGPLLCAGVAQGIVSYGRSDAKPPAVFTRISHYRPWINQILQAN
Summary of the method: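 Human recombinant chymase (16.7 nM or 1.67 nM final) preincubated 5 min at 37° C., then added to nucleic acid (0.0027–2 μM serial dilutions) and 100 μM substrate in solution C. AMC fluorescence (ex 380/em 460 nm) followed 5 or 30 min at 37° C.; slope gives initial velocity, inhibition versus no-inhibitor control yields IC50.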

[3] = target: T3, recombinant chymase (expressed by yeast) (Homo sapiens, UniProt P23946); assay: Chymase inhibitory activity using angiotensin I as substrate, recombinant chymase; format: biochemical; details: final 50 μM, chymase 0.2-0.5 nM, 37° C. 90 min, one measurement
T3 construct: purchased SIGMA; host or cells: yeast
T3 sequence (P23946 22-247): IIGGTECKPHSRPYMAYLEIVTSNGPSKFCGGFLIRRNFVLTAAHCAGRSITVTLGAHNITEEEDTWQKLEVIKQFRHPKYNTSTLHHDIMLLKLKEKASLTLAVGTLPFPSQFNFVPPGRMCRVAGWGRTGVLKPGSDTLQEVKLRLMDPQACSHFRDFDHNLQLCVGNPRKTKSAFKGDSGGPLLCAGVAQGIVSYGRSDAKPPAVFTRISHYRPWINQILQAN
Description: as §1, §2, §3, §4, §5, §6

[4] = target: T4, chymase (Homo sapiens, UniProt P23946); assay: Surface plasmon resonance (Biacore T100), aptamer immobilized on SA chip, chymase injected as analyte; format: binding; set-up: key: ++: a sequence that binds to chymase significantly more strongly than the negative control 30N; details: Table 2; same manner as Example 1, running buffer solution C; compared with 30N
T4 sequence (P23946 22-247): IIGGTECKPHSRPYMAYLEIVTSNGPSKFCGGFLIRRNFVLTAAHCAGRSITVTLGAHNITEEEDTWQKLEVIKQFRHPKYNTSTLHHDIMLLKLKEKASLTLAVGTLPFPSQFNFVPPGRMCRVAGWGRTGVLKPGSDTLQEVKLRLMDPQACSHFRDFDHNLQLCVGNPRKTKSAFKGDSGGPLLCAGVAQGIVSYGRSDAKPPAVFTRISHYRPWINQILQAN
Description: Binding strength is measured using Biacore T100 (manufactured by GE Healthcare). In a method of measurement, the aptamer is first immobilized onto a sensor chip, the amount immobilized being about 1000 RU. 20 μL of a chymase solution for analyte, prepared at 0.2 μM, is injected, and the binding of chymase to the aptamer is detected. An RNA comprising a random nucleotide sequence of 30 or 40 nucleotides is used as a negative control.
The binding activities against chymase of the nucleic acids shown by SEQ ID NO: 4-20 and 22-34 were determined by the surface plasmon resonance method using Biacore T100 (manufactured by GE Healthcare). The sensor chip used was the SA chip, which had streptavidin immobilized thereon. Bound thereto was about 1500 RU of a 16-nucleotide Poly dT with biotin bound to the 5′ end thereof. […] 20 μL of chymase for analyte, prepared at 0.2 μM, was injected. Solution A was used as a running buffer.
The binding activities against chymase of the nucleic acids shown by SEQ ID NO: 38-48 were evaluated by the surface plasmon resonance method. In the evaluations for SEQ ID NO: 38-48, measurements were taken in the same manner as Example 1. Solution C was used as a running buffer.

[5] = target: T5, chymase (recombinant) (UniProt P23946 P23946:22-247); assay: inhibition; SPR ++; details: tags: SIGMA, expressed in yeast
T5 sequence: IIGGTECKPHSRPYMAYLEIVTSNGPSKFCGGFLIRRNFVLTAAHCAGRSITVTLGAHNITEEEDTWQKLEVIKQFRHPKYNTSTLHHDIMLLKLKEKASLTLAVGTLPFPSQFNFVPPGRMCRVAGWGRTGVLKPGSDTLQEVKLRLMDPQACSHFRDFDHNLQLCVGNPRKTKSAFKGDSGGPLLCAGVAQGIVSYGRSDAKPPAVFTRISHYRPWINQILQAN
Description: Here, Suc is a protecting succinyl group, and MCA is a 4-methylcoumaryl-7-amide group; upon cleavage of the C-terminal side of phenylalanine, AMC (7-amino-4-methyl-coumarine) is released. By detecting the fluorescence of this AMC, the enzyme activity of chymase can be determined. The assay was performed using a 96-well plate (F16 Black Maxisorp Fluoronunc, manufactured by Nunc), with a reaction mixture volume of 100 μL, in solution C as a buffer solution. First, each nucleic acid was serially diluted to 0.0027-2 μM concentrations in solution C to obtain 50 μL solutions. After 10 μL of the 1 mM substrate prepared in solution C was added thereto, the plate was set to the microplate reader SpectraMax190 (manufactured by Molecular Devices Corporation), and incubated at 37° C. for 5 minutes. Separately, 0.05 μg (or 0.005 μg) of chymase (recombinant, manufactured by SIGMA) was diluted in solution C to obtain a 40 μL chymase solution, and incubated at 37° C. for 5 minutes. The chymase solution was added to the mixture of the nucleic acid and substrate to initiate an enzyme reaction. The final chymase concentration in the reaction mixture was 16.7 nM (or 1.67 nM), the final substrate concentration being 100 μM. The plate containing the reaction mixture was set to the microplate reader SpectraMax190 (manufactured by Molecular Devices Corporation), and examined for time-dependent changes in the fluorescence intensity at 37° C. for 5 minutes (or 30 minutes) (excitation wavelength 380 nm, detection wavelength 460 nm). A linear approximation of the increase in the fluorescence of the AMC released from the substrate by chymase activity was generated, and its slope was taken as the initial velocity […]. For control, samples were treated and analyzed in the same manner in two cases: use of a 30N or 40N (a nucleotide of 30 or 40 consecutive bases represented by N; N is A, G, C or T) nucleic acid pool (negative control), and use of chymostatin, a known chymotrypsin-like serine protease inhibitor (positive control). Taking the initial reaction velocity without the nucleic acid and inhibitor (V_0) as a 100% enzyme activity, the inhibitory rate of each test substance was calculated using the following equation: […]
The inhibitory activity on chymase was measured in the same manner as in Example 3.

[6] = Table 3, substrate 100 μM, solution C, 37° C., mean value for 2 to 3 measurements

Row | Molecule | Binding activity as determined using Biacore [4] | IC50 [2, 6] [nM] | IC50 [5] [nM] | also measured
1 | 69 (AAAGGGUUAGAUAGAGUUAAAAACCC; listed as RNA, chemistry not given here) [compound 69] | – | – | – | IC50 [1]: > 1000 nM; IC50 ([2]; Table 7, same manner as Example 3, mean value of two measurements): 91 ± 19 nM; IC50 [3]: 628 nM
2 | B1 | ++ | 38 ± 4 | – | –
3 | GGGUUAGAUAGAGUUAAAAACCC (ssRNA, 2'-F pyrimidines; 2'-OMe A18) [56(11)] | – | – | 28 | –
4 | B2 | ++ | 81 ± 50 | – | –
5 | B3 | ++ | 74 ± 11 | – | –
6 | B4 | ++ | 49 ± 13 | – | –
7 | GGGUUAGAUAGAGUUAAAAACCC (ssRNA, 2'-F pyrimidines except U9 2'-OH) [56(15)] | – | – | 61 | –
8 | GGGUUAGAUAGAGUUAAAAACCC (ssRNA, 2'-F pyrimidines; 2'-OMe A16,A17) [56(5)] | – | – | 29 | –
9 | GGGUUAGAUAGAGUUAAAAACCC (ssRNA, 2'-F pyrimidines; 2'-OMe A10) [56(4)] | – | – | 27 | –
10 | B5 | ++ | – | – | –
11 | GGGUUAGAUAGAGUUAAAAACCC (ssRNA, 2'-F pyrimidines; 2'-OMe G7) [56(6)] | – | – | 31 | –
12 | B6 | ++ | 124 ± 26 | – | –
13 | GGGUUAGAUAGAGUUAAAAACCC (ssRNA, 2'-F pyrimidines; 2'-OMe G13) [56(12)] | – | – | 35 | –
14 | GGGUUAGAUAGAGUUAAAAACCC (ssRNA, 2'-F pyrimidines; 2'-OMe A12) [56(9)] | – | – | 111 | –
15 | GGGUUAGAUAGAGUUAAAAACCC (ssRNA, 2'-F pyrimidines; 2'-OMe A8) [56(7)] | – | – | 38 | –
16 | GGGUUAGAUAGAGUUAAAAACCC (ssRNA, 2'-F pyrimidines except U15 2'-OH) [56(16)] | – | – | 58 | –
